Bridge positions count the residues as written; N and C are the ends. Square brackets hold non-standard residues; d marks the D form. Ends that are not written are not given here. Gla = N[C@@H](CC(C(=O)O)C(=O)O)C(=O)O
Columns and labels:
[1] = target: osteocalcin_(17-49) proteolysis fragment (bovine); assay: native MS; ESI-IMS-MS of the limited proteolysis mixture of full length calcium-bound holo-osteocalcin at neutral pH (enzyme:substrate 1:300, ammonium acetate); dimer seen as 6+ ions in the drift time distribution of the 3+ ions
[2] = target: the molecule itself; assay: native MS; ESI-IMS-MS (nanoESI, travelling wave ion mobility), pH 7, 20 mM ammonium acetate (methods) or 1:1 5 mM ammonium acetate: ammonium formate; protein alone and with Ca^2+, Cu^+ or Zn^2+ salt at protein:salt 1:10; dimer told apart from monomer by drift time and isotope pattern; dimer peak increased significantly with metal ions

## osteocalcin_(17-49) proteolysis fragment (domain or fragment)
[1]
  stoichiometry N: 2

B1: bovine osteocalcin (natural protein, UniProt P02820 52-100, looked up)
chain: YLDHWLGAPAPYPDPL[Gla]PKR[Gla]VC[Gla]LNPDCDELADHIGFQEAYRRFYGPV
modifications: disulfide 23-29
notes: also called apo-osteocalcin; apo-OST; source: purified from bovine bone tissue (EDTA extraction, size exclusion and ion exchange chromatography)
[2]
  stoichiometry N: 2
